Molecular target: FOLR1-His (Homo sapiens, UniProt P15328)
Experiment: SPR

FOLR1-His, sequence (P15328 25-233): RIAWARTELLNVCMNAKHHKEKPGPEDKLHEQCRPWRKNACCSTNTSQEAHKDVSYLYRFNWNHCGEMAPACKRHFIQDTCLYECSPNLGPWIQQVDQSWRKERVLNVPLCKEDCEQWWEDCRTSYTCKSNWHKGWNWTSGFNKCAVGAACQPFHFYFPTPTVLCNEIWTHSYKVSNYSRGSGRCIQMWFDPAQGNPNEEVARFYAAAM

Kd: 31.4 nM
B1: KM8188 (antibody, V domains shown)
VH: EVQLVESGGGVVQPGRSLRLSCSASGFTFSGYGLSWVRQAPGKGLEWVAMISSGGSYTYYADSVKGRFAISRDNAKNTLFLQMDSLRPEDTGVYFCARHGDDPAWFAYWGQGTPVTVSS
VL: DIQLTQSPSSLSASVGDRVTITCSVSSSISSNNLHWYQQKPGKAPKPWIYGTSNLASGVPSRFSGSGSGTDYTFTISSLQPEDIATYYCQQWSSYPYMYTFGQGTKVEIK

— PMC5508476 (Translational Oncology, 2017)
